In publication PMC10654211, “GTPBP8 is required for mitoribosomal biogenesis and mitochondrial translation” (Cellular and Molecular Life Sciences: CMLS, 2023):

Substrate: Nc1nc2c(ncn2[C@@H]2O[C@H](COP(=O)(O)OP(=O)(O)OP(=O)(O)O)[C@@H](O)[C@H]2O)c(=O)[nH]1
Assay: purified protein
Type: biochemical, Homo sapiens
Conditions: 12 μM GTPBP8, 0-3 mM GTP, kit reaction buffer, 25 °C, intrinsic GTPase activity

B1: GTPBP8 (GTP-binding protein 8) (Homo sapiens) (protein)
chain: MAAPGLRLGAGRLFEMPAVLERLSRYNSTSQAFAEVLRLPKQQLRKLLYPLQEVERFLAPYGRQDLHLRIFDPSPEDIARADNIFTATERNRIDYVSSAVRIDHAPDLPRPEVCFIGRSNVGKSSLIKALFSLAPEVEVRVSKKPGHTKKMNFFKVGKHFTVVDMPGYGFRAPEDFVDMVETYLKERRNLKRTFLLVDSVVGIQKTDNIAIEMCEEFALPYVIVLTKIDKSSKGHLLKQVLQIQKFVNMKTQGCFPQLFPVSAVTFSGIHLLRCFIASVTGSLD
notes: His-tagged, purified; full-length human CDS in pENTR221, GTPBP8 cloned into pHAT (and pGAT2); full-length 284 residues
Question: How did the Km turn out when B1 was run?
Answer: 200 ± 40 µM

Question: And the kcat?
Answer: 0.000132 ± 5.5e-05 s⁻¹
